Results: patent publication US20110189164A1, “Peptide Stabilizer Compounds and Screening Method” (Isogenica Ltd, priority 2005, published 2011)

How the values were obtained:
Human Thrombin = Human Thrombin (Homo sapiens, UniProt P00734); conditions: fifth round selected peptides; 1 hour incubation +/- Human Thrombin 0.1 unit/ml; anti-FLAG ELISA OD450
Procedure: The values represent ((OD450 nm reading after incubation with thrombin)/(OD450 nm reading after incubation without thrombin)) expressed as a percentage. 100% indicates complete protection from thrombin cleavage.
Recovered DNA from the fifth round of selection was amplified using PCR, purified and digested with NotI and NcoI. The DNA was then ligated into a similarly digested M13 gpIII phagemid vector and transformed into E. coli XL-1 blue cells, and plated on 2% glucose, 2×TY, 100 μg/ml ampicillin plates. Individual colonies were grown for the production of phage particles as previously described (Odegrip et al Proc. Natl. Acad. Sci USA 101 2806-2810 (2004)). NUNC Maxisorp plates were coated with 100 ng/well of anti-FLAG M2 antibody in PBS overnight at 4° C. ELISA assays were performed with bound phage being incubated for 1 hour in 2% BSA in PBS, +/−Human Thrombin (0.1 unit/ml). The assay was developed with SureBlue TMB peroxidase substrate (Insight Biotechnology, Middlesex, UK) and read at 450 nm.

trypsin = molecular target: T1, trypsin (Bos taurus, UniProt P00760); assay: Incubation with trypsin-agarose, then ELISA against anti-FLAG antibody (trypsin resistance); type: in vitro ADME; conditions: two hours at 25° C.
T1 construct: purchased SIGMA-Aldrich or Novagen
T1 sequence (P00760 24-246): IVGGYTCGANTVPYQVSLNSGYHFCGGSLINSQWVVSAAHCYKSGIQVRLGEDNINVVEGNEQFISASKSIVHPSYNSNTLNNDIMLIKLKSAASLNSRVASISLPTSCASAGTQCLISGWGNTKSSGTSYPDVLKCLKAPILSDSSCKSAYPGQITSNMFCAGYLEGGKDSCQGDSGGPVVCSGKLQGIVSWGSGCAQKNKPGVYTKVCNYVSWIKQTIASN
Procedure: A. Unselected library peptides incubated with trypsin. B. Unselected library peptides incubated without trypsin. C. Round five thrombin selection peptides incubated with trypsin. D. Round five thrombin selection peptides incubated without trypsin.
Trypsin cleaves after R or after K, thus there are two trypsin sites fixed in the FLAG epitope and thrombin substrate sequence. Even partial resistance to trypsin is surprising as no selection for trypsin resistance was performed and the FLAG epitope is susceptible to trypsin cleavage. Such resistance is observed in round five peptides selected for thrombin resistance, but not in the un-selected library peptides (FIG. 3).

Sequence	Thrombin resistant (Human Thrombin)	Trypsin resistant (trypsin)
HGHSPSDNANTR [SEQID 028]	resistant	resistant
PSCPNKQDPTHD [SEQID 030]	resistant	resistant
HCVHEPQTKHES [SEQID 029]	resistant	resistant
ITPPDNSHTPDE [SEQID 027]	resistant	resistant
